From patent US20140072581A1 (Zymeworks, published 2014)

Target: T1, CD3 on HBP-ALL (CD3+) cells (UniProt P07766 23-207)
T1 construct: whole, on cells; CD3 is a multi-chain complex
Assay: live cell ELISA on HBP-ALL (CD3+) cells
Method: These variants were tested for their ability to bind to cells expressing the target antigen using a live cell ELISA binding assay using filter plates and wash steps carried out using a vacuum manifold (method developed by Anne Marcil at the National Research Council, Montreal, Canada). The method was carried out as follows. Cells were maintained in exponential growth phase and then washed, counted and distributed at 10E5 cells per well in 50% medium, 50% blocking buffer. Dilutions of variants in blocking buffer were added to the cells and incubated for 1 hour at 4° C. After collection and four washes in medium, an HRP-conjugated goat anti-human IgG was added to cells which were incubated for 1 hour at 4° C. After collection and four washes in medium and 3 washes in PBS, TMB substrate was added to cells which were incubated for 25 minutes at room temperature. The reaction was stopped by addition of H₂SO4 and OD read at 450 nm. The ELISA results are depicted in Tables 17 and 18. A, B, and C refer to the ratio of Chain A to Chain B used in expression of the variant: Ratio A=Chain A/Chain B=1:1 A/B=50%/50%; Ratio B=Chain A/Chain B=2:1 A/B=66%/34%; Ratio C=Chain A/Chain B=1:2 A/B=34%/66%.

B1: MOR208-CD19 FSA, variant 2176 (antibody, V domains shown)
VH: EVQLVESGGGLVKPGGSLKLSCAASGYTFTSYVMHWVRQAPGKGLEWIGYINPYNDGTKYNEKFQGRVTISSDKSISTAYMELSSLRSEDTAMYYCARGTYYYGTRVFDYWGQGTLVTVSS
VL: DIVMTQSPATLSLSPGERATLSCRSSKSLQNVNGNTYLYWFQQKPGQSPQLLIYRMSNLNSGVPDRFSGSGSGTEFTLTISSLEPEDFAVYYCMQHLEYPITFGAGTKLEIK
notes: Control; also called 2176 A; anti-CD19 warhead from MOR208
B1: no binding (tested: OD450 = or < negative control 1041).
